What was measured:
[1] = target: pHipTLp (HipTLp, Lpg2370) (Legionella pneumophila, UniProt Q5ZSZ6); experiment: biochemical
[2] = target: co-expressed 6×His-tagged Lpg2369–Lpg2370 (HipTLp–HipSLp) complex (Legionella pneumophila) (UniProt Q5ZSZ7); experiment: ITC
[3] = target: HipTLp (Lpg2370), 6×His-tagged, expressed alone (autophosphorylated, pHipTLp) (Legionella pneumophila) (UniProt Q5ZSZ6); experiment: ITC

Molecule: Nc1ncnc2c1ncn2[C@@H]1O[C@H](COP(=O)(O)OP(=O)(O)NP(=O)(O)O)[C@@H](O)[C@H]1O [AMP–PNP]
- Kd [1]: ~70000 nM

Molecule: HipBLp (Lpg2368) (from UniProt Q5ZSZ8 1-75) (natural protein)
- Kd [2]: 1500 nM

Molecule: HipSLp (Lpg2369), untagged wild type (6×His-tag cleaved with TEV protease) (from UniProt Q5ZSZ7 1-102) (natural protein)
- Kd [3]: 42 nM
